Data on 18 substances can be found in patent US20050202403A1.

Experiment [1] has as its target yeast Gβγ (STE4/STE18) (Saccharomyces cerevisiae) (UniProt P18851). Description: cell-based or functional assay.
The target in experiment [2] is human adenosine A2a receptor (human) (UniProt P29274). Put plainly: cell-based or functional assay.

“And” between values parts separate entries of the source, which are not always exact repeats. Equal values may be shown once.

yeast Gβγ (STE4/STE18) (Saccharomyces cerevisiae), sequence (P18851 whole entry, chain 1 of 2): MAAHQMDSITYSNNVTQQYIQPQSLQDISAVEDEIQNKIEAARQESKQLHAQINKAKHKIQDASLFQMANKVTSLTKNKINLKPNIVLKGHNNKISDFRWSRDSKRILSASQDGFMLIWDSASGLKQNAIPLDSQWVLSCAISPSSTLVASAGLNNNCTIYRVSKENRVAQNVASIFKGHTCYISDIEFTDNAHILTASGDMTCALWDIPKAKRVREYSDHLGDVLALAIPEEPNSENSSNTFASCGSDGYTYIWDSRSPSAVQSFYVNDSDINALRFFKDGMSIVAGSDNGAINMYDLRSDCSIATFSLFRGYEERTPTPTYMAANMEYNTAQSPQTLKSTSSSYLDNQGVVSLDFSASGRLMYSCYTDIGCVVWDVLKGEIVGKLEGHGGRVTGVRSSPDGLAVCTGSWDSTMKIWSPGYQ
yeast Gβγ (STE4/STE18) (Saccharomyces cerevisiae), sequence (P18852 1-107, chain 2 of 2, further chain): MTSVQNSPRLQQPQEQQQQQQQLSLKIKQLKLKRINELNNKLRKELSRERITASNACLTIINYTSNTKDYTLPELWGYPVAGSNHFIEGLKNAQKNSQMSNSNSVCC
human adenosine A2a receptor (human), sequence (P29274 whole entry): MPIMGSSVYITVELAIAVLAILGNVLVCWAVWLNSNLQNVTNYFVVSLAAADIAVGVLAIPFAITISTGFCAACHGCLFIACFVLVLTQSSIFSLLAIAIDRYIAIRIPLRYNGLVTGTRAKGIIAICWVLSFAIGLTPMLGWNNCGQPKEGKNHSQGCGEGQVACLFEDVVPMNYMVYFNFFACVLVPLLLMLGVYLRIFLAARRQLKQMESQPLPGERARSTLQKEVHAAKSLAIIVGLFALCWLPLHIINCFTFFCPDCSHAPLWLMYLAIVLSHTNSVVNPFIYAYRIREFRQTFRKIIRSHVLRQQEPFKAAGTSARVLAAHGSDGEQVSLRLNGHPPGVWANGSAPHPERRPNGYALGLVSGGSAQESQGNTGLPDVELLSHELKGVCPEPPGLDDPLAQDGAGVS
GPA1-Gα12 chimera (Cp3435), sequence (P08539 1-41, change not shown): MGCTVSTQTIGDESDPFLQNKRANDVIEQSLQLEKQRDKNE
GPA1-Gα12 S288P chimera (Cp3822), sequence (P08539 1-41, stated change not applied): as the sequence (P08539 1-41, change not shown) above
GPA1(41)-Gαi2-Gαo(40), sequence (P08539 1-41): as the sequence (P08539 1-41, change not shown) above
GPA1(41)-Gαi1, sequence (P08539 1-41): as the sequence (P08539 1-41, change not shown) above
Gpal(1-43)-Gαi2(36-242)-GαoB(243-354) S280P chimera (Cp3635), sequence (P08539 1-43, stated change not applied): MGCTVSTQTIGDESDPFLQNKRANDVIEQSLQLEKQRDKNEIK
GPA1(20)-Gα16(S-P), sequence (P08539 1-20): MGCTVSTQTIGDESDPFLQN
rat Gαs, wild type (Cp3098), sequence (P63095 2-394): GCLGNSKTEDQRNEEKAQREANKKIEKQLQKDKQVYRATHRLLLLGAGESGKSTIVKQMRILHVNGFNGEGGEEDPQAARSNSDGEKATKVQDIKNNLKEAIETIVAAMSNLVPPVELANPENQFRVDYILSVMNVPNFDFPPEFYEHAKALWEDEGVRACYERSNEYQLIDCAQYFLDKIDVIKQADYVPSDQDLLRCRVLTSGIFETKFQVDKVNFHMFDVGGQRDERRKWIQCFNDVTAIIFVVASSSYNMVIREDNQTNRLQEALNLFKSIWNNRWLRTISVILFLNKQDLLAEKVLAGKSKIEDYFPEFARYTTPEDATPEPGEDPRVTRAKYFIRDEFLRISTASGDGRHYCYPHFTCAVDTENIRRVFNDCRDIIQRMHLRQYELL

“GPA1(20)-Gα16 (from UniProt P08539 1-20)” displayed a min[AT]i in experiment [1] of 1 mM. On the same count and under the same terms, for “GPA1(20)-Gα16(S-P) (from UniProt P08539 1-20)” the value was 0.5 mM; for “GPA1(41)-Gαi1 (from UniProt P08539 1-41)”, 0.5 mM.

On to “GPA1(41)-Gαi2 (from UniProt P08539 1-41; P04899 36-355)”, for which the min[AT]i in experiment [1] came to 0.5 mM. For the substance “GPA1(41)-Gαi2-Gαo(40) (from UniProt P08539 1-41)”, in experiment [1], the min[AT]i was 1 mM. The same measure, in the same setting: the same measure for “GPA1(41)-Gαi3 (from UniProt P08539 1-41; P08754 36-354)”: 0.5 mM. In experiment [1], “GPA1-Gα12 S288P chimera (Cp3822) (from UniProt P08539 1-41)” yielded a growth of gpa1 fus1-HIS3 yeast on aminotriazole of 0.5 mM and a min[AT]i of 1 mM. For “GPA1-Gα12 chimera (Cp3435) (from UniProt P08539 1-41)”, the growth of gpa1 fus1-HIS3 yeast on aminotriazole in experiment [1] was 2.5 mM and 1 mM. In the case of “Gpal(1-43)-Gα16(45-374) S270P chimera (Cp3699) (from UniProt P08539 1-43; P30679 45-374)”, in experiment [1], the min[AT]i stood at 1 mM. Regarding “Gpal(1-43)-Gαi2(36-242)-GαoB(243-354) S280P chimera (Cp3635) (from UniProt P08539 1-43)”, the min[AT]i in experiment [1] is 1 mM. As to Gαi1, the min[AT]i in experiment [1] was determined as 1.5 mM. In experiment [2], “rat Gαs D229S (Cp3390) (from UniProt P63095 2-394)” came in with a fusl-lacZ reporter, β-galactosidase units on addition of NECA of 10 fold. Substance “rat Gαs D229V (from UniProt P63095 2-394)” displayed a growth of the gpal fusl-HIS3 strain on 3-AT in experiment [1] of 0.2 mM.

In experiment [1], “rat Gαs E10K (from UniProt P63095 2-394)” gave a growth of the gpal fusl-HIS3 strain on 3-AT of 0.2 mM. For the same substance, in experiment [2], the fusl-lacZ reporter, β-galactosidase units on addition of NECA amounted to 10 fold. In turn, “rat Gαs E10K D229S double mutant (from UniProt P63095 2-394)” displayed a fusl-lacZ reporter, β-galactosidase units on addition of NECA in experiment [2] of 10 fold. The substance “rat Gαs N254D (from UniProt P63095 2-394)” displayed a growth of the gpal fusl-HIS3 strain on 3-AT in experiment [1] of 0.2 mM. This substance also came in with a fusl-lacZ reporter, β-galactosidase units on addition of NECA in experiment [2] of 10 fold. In experiment [1], “rat Gαs S286P (from UniProt P63095 2-394)” registered a growth of the gpal fusl-HIS3 strain on 3-AT of 0.2 mM. For the same substance, the fusl-lacZ reporter, β-galactosidase units on addition of NECA in experiment [2] is 10 fold. In the case of “rat Gαs, wild type (Cp3098) (from UniProt P63095 2-394)”, the growth of a gpal fusl-HIS3 colony on media lacking histidine with 3-AT in experiment [1] was 1 mM.
